According to publication doi:10.1101/379156, “Probing the Modularity of Megasynthases by Rational Engineering of a Fatty Acid Synthase (FAS) Type I” (bioRxiv, 2018):

Molecular target: the molecule itself
Assay: SEC; as a1, but samples not incubated at 37 °C before the SEC run; monomer to dimer

Protein | stoichiometry N
mFAS gamma-module, construct 7 (2-1517+1870-2195) (domain or fragment, Mus musculus, UniProt P19096 2-2195, looked up, murine fatty acid synthase 2-2195 with the ER domain deleted (P1517 bridged to S1870); Made from construct 6 as template; also called γ-module) EEVVIAGMSGKLPESENLQEFWANLIGGVDMVTDDDRRWKAGLYGLPKRSGKLKDLSKFDASFFGVHPKQAHTMDPQLRLLLEVSYEAIVDGGINPASLRGTNTGVWVGVSGSEASEALSRDPETLLGYSMVGCQRAMMANRLSFFFDFKGPSIALDTACSSSLLALQNAYQAIRSGECPAALVGGINLLLKPNTSVQFMKLGMLSPDGTCRSFDDSGSGYCRSEAVVAVLLTKKSLARRVYATILNAGTNTDGSKEQGVTFPSGEVQEQLICSLYQPAGLAPESLEYIEAHGTGTKVGDPQELNGITRSLCAFRQAPLLIGSTKSNMGHPEPASGLAALTKVLLSLEHGVWAPNLHFHNPNPEIPALLDGRLQVVDRPLPVRGGNVGINSFGFGGSNVHVILQPNTRQAPAPTAHAALPHLLHASGRTLEAVQDLLEQGRQHSQDLAFVSMLNDIAATPTAAMPFRGYTVLGVEGRVQEVQQVSTNKRPLWFICSGMGTQWRGMGLSLMRLDSFRESILRSDEAVKPLGVKVSDLLLSTDERTFDDIVHAFVSLTAIQIALIDLLTSVGLKPDGIIGHSLGEVACGYADGCLSQREAVLAAYWRGQCIKDAHLPPGSMAAVGLSWEECKQRCPAGVVPACHNSEDTVTISGPQAAVNEFVEQLKQEGVFAKEVRTGGLAFHSYFMEGIAPTLLQALKKVIREPRPRSARWLSTSIPEAQWQSSLARTSSAEYNVNNLVSPVLFQEALWHIPEHAVVLEIAPHALLQAVLKRGVKSSCTIIPLMKRDHKDNLEFFLTNLGKVHLTGINVNPNALFPPVEFPAPRGTPLISPHIKWDHSQTWDVPVAEDFPNGSSSSSATVYSIDASPESPDHYLVDHCIDGRVIFPGTGYLCLVWKTLARSLGLSLEETPVVFENVSFHQATILPKTGTVALEVRLLEASHAFEVSDTGNLIVSGKVYLWEDPNSKLFDHPEVPTPPESASVSRLTQGEVYKELRLRGYDYGPQFQGICEATLEGEQGKLLWKDNWVTFMDTMLQVSILGSSQQSLQLPTRVTAIYIDPATHRQKVYRLKEDTQVADVTTSRCLGITVSGGIHISRLQTTATSRRQQEQLVPTLEKFVFTPHMEAECLSESTALQKELQLCKGLARALQTKATQQGLKAAMLGQEDPPQHGLPRLLAAACQLQLNGNLQLELGEALAQERLLLPEDPLISGLLNSQALKACVDTALENLSTLKMKVAEVLAGEGHLYSRIPALLNTQPMLQLEYTATDRHPQALKDVQTKLQQHDVAQGQWNPSDPAPSSLGALDLLVCNCALATLGDPALALDNMVAALKEGGFLLVHTVLKGHALGETLACLPSEVQPAPSLLSQEEWESLFSRKALHLVGLKRSFYGTALFLCRRAIPQEKPIFLSVEDTSFQWVDSLKSTLATSSSQPVWLTAMDCPTSGVVGLVNCLRKEPGGHRIRCILLSNLSNTSHAPKLDPGSPELQQVLKHDLVMNVYRDGAWGAFRHFQLEQDKPSKTFCPAHKSYIITGGLGGFGLELARWLVLRGAQRLVLTSRSGIRTGYQAKHIREWRRQGIQVLVSTSNVSSLEGARALIAEATKLGPVGGVFNLAMVLRDAMLENQTPELFQDVNKPKYNGTLNLDRATREACPELDYFVAFSSVSCGRGNAGQTNYGFANSTMERICEQRRHDGLPGLAVQWGAIGDVGIVLEAMGTNDTVIGGTLPQRISSCMEVLDLFLNQPHAVLSSFVLAEKKAVAHGDGDTQRDLVKAVAHILGIRDLAGINLDSTLADLGLDSLMGVEVRQILEREHDLVLPMREVRQLTLRKLQEMSSKTDSATDTT | 2
mFAS beta-module, construct 8 (2-858+1104-1517+1870-2195) (domain or fragment, Mus musculus, UniProt P19096 2-2195, looked up, murine fatty acid synthase 2-2195 with the DH domain (S858 linked with S1104) and the ER domain (P1517 bridged to S1870) deleted; Made from construct 7; also called β-module) EEVVIAGMSGKLPESENLQEFWANLIGGVDMVTDDDRRWKAGLYGLPKRSGKLKDLSKFDASFFGVHPKQAHTMDPQLRLLLEVSYEAIVDGGINPASLRGTNTGVWVGVSGSEASEALSRDPETLLGYSMVGCQRAMMANRLSFFFDFKGPSIALDTACSSSLLALQNAYQAIRSGECPAALVGGINLLLKPNTSVQFMKLGMLSPDGTCRSFDDSGSGYCRSEAVVAVLLTKKSLARRVYATILNAGTNTDGSKEQGVTFPSGEVQEQLICSLYQPAGLAPESLEYIEAHGTGTKVGDPQELNGITRSLCAFRQAPLLIGSTKSNMGHPEPASGLAALTKVLLSLEHGVWAPNLHFHNPNPEIPALLDGRLQVVDRPLPVRGGNVGINSFGFGGSNVHVILQPNTRQAPAPTAHAALPHLLHASGRTLEAVQDLLEQGRQHSQDLAFVSMLNDIAATPTAAMPFRGYTVLGVEGRVQEVQQVSTNKRPLWFICSGMGTQWRGMGLSLMRLDSFRESILRSDEAVKPLGVKVSDLLLSTDERTFDDIVHAFVSLTAIQIALIDLLTSVGLKPDGIIGHSLGEVACGYADGCLSQREAVLAAYWRGQCIKDAHLPPGSMAAVGLSWEECKQRCPAGVVPACHNSEDTVTISGPQAAVNEFVEQLKQEGVFAKEVRTGGLAFHSYFMEGIAPTLLQALKKVIREPRPRSARWLSTSIPEAQWQSSLARTSSAEYNVNNLVSPVLFQEALWHIPEHAVVLEIAPHALLQAVLKRGVKSSCTIIPLMKRDHKDNLEFFLTNLGKVHLTGINVNPNALFPPVEFPAPRGTPLISPHIKWDHSQTWDVPVAEDFPNGSSSSSSRRQQEQLVPTLEKFVFTPHMEAECLSESTALQKELQLCKGLARALQTKATQQGLKAAMLGQEDPPQHGLPRLLAAACQLQLNGNLQLELGEALAQERLLLPEDPLISGLLNSQALKACVDTALENLSTLKMKVAEVLAGEGHLYSRIPALLNTQPMLQLEYTATDRHPQALKDVQTKLQQHDVAQGQWNPSDPAPSSLGALDLLVCNCALATLGDPALALDNMVAALKEGGFLLVHTVLKGHALGETLACLPSEVQPAPSLLSQEEWESLFSRKALHLVGLKRSFYGTALFLCRRAIPQEKPIFLSVEDTSFQWVDSLKSTLATSSSQPVWLTAMDCPTSGVVGLVNCLRKEPGGHRIRCILLSNLSNTSHAPKLDPGSPELQQVLKHDLVMNVYRDGAWGAFRHFQLEQDKPSKTFCPAHKSYIITGGLGGFGLELARWLVLRGAQRLVLTSRSGIRTGYQAKHIREWRRQGIQVLVSTSNVSSLEGARALIAEATKLGPVGGVFNLAMVLRDAMLENQTPELFQDVNKPKYNGTLNLDRATREACPELDYFVAFSSVSCGRGNAGQTNYGFANSTMERICEQRRHDGLPGLAVQWGAIGDVGIVLEAMGTNDTVIGGTLPQRISSCMEVLDLFLNQPHAVLSSFVLAEKKAVAHGDGDTQRDLVKAVAHILGIRDLAGINLDSTLADLGLDSLMGVEVRQILEREHDLVLPMREVRQLTLRKLQEMSSKTDSATDTT | 2
